The text below walks through data of paper doi:10.1101/2024.03.19.585761.

For this test, the target named is ErbB2 (natural, endogenous in BT474 and MCF7 cells) (human (endogenous in MCF7 and BT474)) (UniProt P04626). Kind of test: PICO.

Where only a bound is given, the exact number is not on record here.

As for “ErbB3 (endogenous in BT474 and MCF7 cells) (from UniProt P21860 20-1342) (receptor)”, the ErbB2:ErbB3 complexes per cell (ppc), BT474 mock, antibody pair TTZ-2F12 was 662 ppc; the ErbB2:ErbB3 complexes per cell (ppc), BT474 mock, antibody pair TTZ-Ab90 was 831 ppc; the ErbB2:ErbB3 complexes per cell (ppc), MCF7 dactolisib, antibody pair TTZ-2F12 stood at 8670 ppc; the ErbB2:ErbB3 complexes per cell (ppc), MCF7 mock, antibody pair TTZ-2F12 is 4370 ppc. Also, the ErbB2:ErbB3 complexes per cell (ppc), MCF7 mock, antibody pair TTZ-Ab90 came out at 5200 ppc; the ErbB2:ErbB3 complexes per cell, BT474 dactolisib (molecules per cell) was less than 181; the percent of ErbB2 bound to ErbB3, BT474 mock came out at 0.09%.
